The source of these data is article PMC12516561 (2025).

B1: iRhom2 wild type (HA-tagged) [human] / V5-tagged FRMD8 [not stated] (parent complex)
chain 1: MASADKNGGSVSSVSSSRLQSRKPPNLSITIPPPEKETQAPGEQDSMLPEGFQNRRLKKSQPRTWAAHTTACPPSFLPKRKNPAYLKSVSLQEPRSRWQESSEKRPGFRRQASLSQSIRKGAAQWFGVSGDWEGQRQQWQRRSLHHCSMRYGRLKASCQRDLELPSQEAPSFQGTESPKPCKMPKIVDPLARGRAFRHPEEMDRPHAPHPPLTPGVLSLTSFTSVRSGYSHLPRRKRMSVAHMSLQAAAALLKGRSVLDATGQRCRVVKRSFAFPSFLEEDVVDGADTFDSSFFSKEEMSSMPDDVFESPPLSASYFRGIPHSASPVSPDGVQIPLKEYGRAPVPGPRRGKRIASKVKHFAFDRKKRHYGLGVVGNWLNRSYRRSISSTVQRQLESFDSHRPYFTYWLTFVHVIITLLVICTYGIAPVGFAQHVTTQLVLRNKGVYESVKYIQQENFWVGPSSIDLIHLGAKFSPCIRKDGQIEQLVLRERDLERDSGCCVQNDHSGCIQTQRKDCSETLATFVKWQDDTGPPMDKSDLGQKRTSGAVCHQDPRTCEEPASSGAHIWPDDITKWPICTEQARSNHTGFLHMDCEIKGRPCCIGTKGSCEITTREYCEFMHGYFHEEATLCSQVHCLDKVCGLLPFLNPEVPDQFYRLWLSLFLHAGVVHCLVSVVFQMTILRDLEKLAGWHRIAIIFILSGITGNLASAIFLPYRAEVGPAGSQFGLLACLFVELFQSWPLLERPWKAFLNLSAIVLFLFICGLLPWIDNIAHIFGFLSGLLLAFAFLPYITFGTSDKYRKRALILVSLLAFAGLFAALVLWLYIYPINWPWIEHLTCFPFTSRFCEKYELDQVLH
chain 2: MDGTEGSAGQPGPAERSHRSSVSSVGARAADVLVYLADDTVVPLAVENLPSLSAHELHRAVREVLQLPDIALDVFALWLVSPLLEVQLKPKHQPYKLGRQWPELLLRFTSAPDDDVAMDEPFLQFRRNVFFPKRRELQIHDEEVLRLLYEEAKGNVLAARYPCDVEDCEALGALVCRVQLGPYQPGRPAACDLREKLDSFLPAHLCKRGQSLFAALRGRGARAGPGEQGLLNAYRQVQEVSSDGGCEAALGTHYRAYLLKCHELPFYGCAFFHGEVDKPAQGFLHRGGRKPVSVAISLEGVHVIDSREKHVLLGLRFQELSWDHTSPEEEEPILWLEFDGDSEGTPVNKLLKIYSKQAELMSSLIEYCIELSQAAEPAGPQDSATGSPSDPSSSLAPVQRPKLRRQGSVVSSRIQHLSTIDYVEDGKGIRRVKPKRTTSFFSRQLSLGQGSYTVVQPGDSLEQG

In the assay the parent is B1. The assay can be described thus: co-immunoprecipitation (HA-IP) with western blot quantification; iRhom1/2 DKO HEK293T cells co-transfected with V5-tagged FRMD8; three independent experiments; read off a plot. Background: In western blotting, separated proteins are transferred to a membrane and probed.
For chain 1 S239A, the ratio to parent is ~1.2.

Consider chain 1 P233A, chain 1 R234A, chain 1 R235A, chain 1 K236A, chain 1 R237A, chain 1 M238A, chain 1 S239A, for which the ratio to parent was ~1.1.

For chain 1 P233A, chain 1 R234A, chain 1 R235A, chain 1 K236A, chain 1 R237A, chain 1 M238A, the ratio to parent is ~1.05.
